T1: FPS2 (Arabidopsis thaliana, UniProt Q43315)
T1 construct: full length, 342 residues; cDNA pcNC2; GST fusion in E. coli BL21(DE3), GST removed with Factor Xa leaving no extra residues; homodimer
T1 sequence (Q43315 1-342): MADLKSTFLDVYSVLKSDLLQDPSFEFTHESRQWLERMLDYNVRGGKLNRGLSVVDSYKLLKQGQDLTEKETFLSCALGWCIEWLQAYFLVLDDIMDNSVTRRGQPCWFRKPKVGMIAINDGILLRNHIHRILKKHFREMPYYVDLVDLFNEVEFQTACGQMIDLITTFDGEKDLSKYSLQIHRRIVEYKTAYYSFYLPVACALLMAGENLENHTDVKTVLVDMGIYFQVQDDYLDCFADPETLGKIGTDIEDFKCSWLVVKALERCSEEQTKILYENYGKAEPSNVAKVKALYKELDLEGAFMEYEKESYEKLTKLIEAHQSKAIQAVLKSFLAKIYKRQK

T2: FPS1S (Arabidopsis thaliana, UniProt Q09152)
T2 construct: gene FPS1; short isoform, 343 residues, lacking the 41-residue N-terminal extension of FPS1L; cDNA pcNC3; GST fusion in E. coli BL21(DE3), GST removed with Factor Xa leaving no extra residues; homodimer
T2 sequence (Q09152 1-343 isoform Q09152-2): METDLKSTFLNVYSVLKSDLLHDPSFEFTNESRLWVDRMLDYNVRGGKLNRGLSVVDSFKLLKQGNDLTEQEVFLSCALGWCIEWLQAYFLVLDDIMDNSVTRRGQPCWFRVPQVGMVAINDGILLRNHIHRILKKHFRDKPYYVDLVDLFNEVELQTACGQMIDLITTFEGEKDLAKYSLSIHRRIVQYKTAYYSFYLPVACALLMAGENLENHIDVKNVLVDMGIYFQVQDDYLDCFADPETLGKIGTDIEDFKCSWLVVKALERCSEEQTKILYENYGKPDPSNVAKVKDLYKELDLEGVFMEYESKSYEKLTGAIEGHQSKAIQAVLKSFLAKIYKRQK

B1: FPS1S (Arabidopsis thaliana) (protein)
chain: T2 sequence (Q09152 1-343 isoform Q09152-2)
notes: short isoform, 343 residues, lacking the 41-residue N-terminal extension of FPS1L; cDNA pcNC3; GST fusion in E. coli BL21(DE3), GST removed with Factor Xa leaving no extra residues; homodimer
B2: FPS2 (Arabidopsis thaliana) (protein)
chain: T1 sequence (Q43315 1-342)
notes: full length, 342 residues; cDNA pcNC2; GST fusion in E. coli BL21(DE3), GST removed with Factor Xa leaving no extra residues; homodimer

Experiments:
[1] = target: T1, FPS2; test: radiometric [[…]-14C]IPP incorporation, acid hydrolysis and hexane extraction; format: biochemical; details: product inhibition; FPP 0 to 1 mM; PIPES pH 7.0, 37°C
[2] = target: T2, FPS1S; test: as above; format: biochemical; details: product inhibition; FPP 0 to 1 mM; PIPES pH 7.0, 37°C
[3] = substrate: CC(C)=CCOP(=O)(O)OP(=O)(O)O; test: purified protein; format: biochemical, Arabidopsis thaliana; details: 100 µM IPP, 4 mM MgCl2, PIPES pH 7.0, 37°C, apparent Km, kcat per dimer
[4] = substrate: CC(C)=CCC/C(C)=C/COP(=O)(O)OP(=O)(O)O; test: purified protein; format: biochemical, Arabidopsis thaliana; details: 100 µM IPP, 4 mM MgCl2, PIPES pH 7.0, 37°C, apparent Km, kcat per dimer
[5] = substrate: C=C(C)CCO[P@@](=O)(O)OP(=O)(O)O; test: purified protein; details: 200 µM DMAPP, 4 mM MgCl2, PIPES pH 7.0, 37°C, labelled compound, apparent Km, kcat per dimer

| Molecule | % reduction of activity at 1 mM [1] | % reduction of activity at 1 mM [2] | Km [3] | kcat [3] | kcat/Km [3] | Km [4] | kcat [4] | kcat/Km [4] | Km [5] | kcat [5] | kcat/Km [5] |
| --- | --- | --- | --- | --- | --- | --- | --- | --- | --- | --- | --- |
| CC(C)=CCC/C(C)=C/CC/C(C)=C/COP(=O)(O)OP(=O)(O)O [FPP] | ~ 30% | ~ 30% |  |  |  |  |  |  |  |  |  |
| B1 |  |  | 22.7 ± 2.1 µM | 0.87 s⁻¹ | 38300 M⁻¹ s⁻¹ | 8.3 ± 1.2 µM | 0.607 s⁻¹ | 73300 M⁻¹ s⁻¹ | 23.1 ± 0.4 µM | 1.04 s⁻¹ | 45000 M⁻¹ s⁻¹ |
| B2 |  |  | 31.5 ± 0.5 µM | 3.29 s⁻¹ | 103000 M⁻¹ s⁻¹ | 11.3 ± 1.0 µM | 2.21 s⁻¹ | 195000 M⁻¹ s⁻¹ | 31.3 ± 0.5 µM | 4.48 s⁻¹ | 143000 M⁻¹ s⁻¹ |

Reference: article PMC3492304, “Characterization of Arabidopsis FPS Isozymes and FPS Gene Expression Analysis Provide Insight into the Biosynthesis of Isoprenoid Precursors in Seeds” (PLoS ONE, 2012)
